In the DeepSol protein solubility set:

Assay: soluble on expression in E. coli; label from the status in PepcDB or PDB records

| Sequence | soluble on expression in E. coli |
| --- | --- |
| MSVLRSMDKLPDLNRATVLLVSTEDALLQQLAESMLKDDCASELRVHLANSLPLPSNVNRPRIDLIVFVINLHSKYSLQKVEEFLQHVDSSFFLGKVCFLVTGAGQESHCSVHQNTVIKLAHTYRSPLFLCDLQKVESFRAAMARRLVRILQICAGHVPGVSALNLMSLLRSPENPPSKEL | not soluble |
| MERELAHWVERLRERAEAEGLSFPPVAFQEVGPEEMAMLAAYGGFPRRYPHWRWGSAYLHYRETYRYGLARIYELVVNTVPVQAYLLRGNPLLAQKLVVAHVYAHADFFQNNLAFKPIPKDMLAEMAHHAAYVERAMERHGARSVEEFLDLALSLENLIDPHAPYIQRPAQKEEEAPKRLPVRPYLDPYVNPAPAFPKEAEEGASPEPLPPRPTRDILGFLARHAPLAPWQKGILEIVREESLYFAPQAATKILNEGWATYWHTRLLLPLLTPEEALEFAEMQANLLAPHGLNPYRLGYHLLMEVEERWDKGRFGPEYEALPLGERLRYERPTGEGRKKLFQVRTVYTDLNFLEEFLTPEFALRRGLFALEDLPRFAEAKKALLFRLTNLGYPIVELVDANYQNRGELLLAHAYEGVELDLRKTKAVLENLHRLWGRPVHLKTVVGGKETLLSAGA | soluble |
| MRVVYTSPRIENLQFLKSEFSNYSVIVLEEPKNDLFHDVLEGKITVDLYVRKISTQFPLYTRKLIEMLKELKSREIMQVEPYLEEVERLKNFSEGDERVREMEKRVNALYIDYTESFLKSDFDEIVEKVLRFSEAEAERIMLRDEMRAKALDDLDEAVIEAGMNHIKLAEILDAESVRIPEIIAERLGTRYLENPGEKLLKAFIFEEDDDLRLLAARNLIFTSLLEKREMEPDFDGDYPHFTHEQKLVRFVDKLDYEKCRKLFYRFWSPR | not soluble |
| IRHEITSRTSVSVLVNRCNWFCTSPKCSGLTVMGCLCVAMSVAKKDKPTMSVTALINWARPLPPGQQQQPMTPTSPGNMLQPMATPSNLPTVDCSLDIQWLNLEGGFMSPMSPPEMKPDTAMLDGLRDDSTPPPAFKNYPPNHPLSGSKHLCSICGDRASGKHYGVYSCEGCKGFFKRTVRKDLTYACREERNCIIDKRQRNRCQYCRYQKCLACGMKREAVQEERQRAARGTEDAHPSSSVQVQELSIERLLEMESLVADPSEEFQFLRVGPDSNVPPKFRAPVSSLCQIGNKQIAALVVWARDIPHFSQLEMEDQILLIKGSWNELLLFAIAWRSMEFLTEERDGVDGTGNRTTSPPQLMCLMPGMTLHRNSALQAGVGQIFDRVLSELSLKMRTLRVDQAEYVALKAIILLNPDVKGLKNRQEVEVLREKMFLCLDEYCRRSRSSEEGRFAALLLRLPALRSISLKSFEHLFFFHLVADTSIAGYIRDALRNHAPPIDTNMM | soluble |
| MSLASVWKRLQRVGKHASKFQFVASYQELMVECTKKWQPDKLVVVWTRRSRRKSSKAHSWQPGIKNPYRGVVVWPVPENIEITVTLFKDPHAEEFEDKEWTFVIENESPSGRRKALATSSINMKQYASPMPTQTDVKLKFKPLSKKVVSATLQFSLSCIFLREGKATDEDMQSLASLMSMKQADIGNLDDFEEDNEDDDENRVNQEEKAAKITEGHHHHHH | not soluble |
| SLQMQGITGSNITVLELVERYLSLKTGVKHNTLANYKFVVNVLKKEEFAYKKVDDVKLSDAKIFLIKLQRDGRGYSSIHSIRGVLRPAFQMAVDDDLILKNPFGFELGTVLVNDSQKRQAVSPEDETKFLDFVKNDPHYNQYYDAFYILFKTGLRISEFCGLTVKDLDFKEDIINVNHQLQRTREMKYIIVSTKTTSGTRLLPMEADVKEAFLRILKNRRKPKREPMVDGYGGFLFLDKNGRPMVALHWEKYMQHAREKYNRENLLQLPPVTPHICRHTYCTNMANSGMNPKTLQYLMGHSDVSVTLNIYTHTGYDDAKKELARLKEARDELEKKKFITQKHAQTTHVSLIS | not soluble |
| MTNNSGNKVQDIMTKNVATISPNQTVQEAAQIMSQKNIGALPVVENGQVKGMITDRDITLRVSSQGKDPSTVKVAEVMTNQVVTGTPNMSVQEAANVMAQHQVRRLPIVENNQLQGIVALGDIATNSASNEAAEQALTNISEPSQPQG | soluble |
| ENALIGVNDHTLVTENDGRRWVTREPAIVYFHKKYWFNIIAMIRETGVSYYCNLASPYILDPEALKYIDYDLDVKVFADGEKRLLDVDEYEQHKAQMNYP | not soluble |
| MLPSQHKLSNSEQFRATIRKGKRAGRSTVVLHFYAEATAGNLATAGGPRFGLVVSKAVGNAVTRHRVSRQLRHVVIAMKDQFPASSHVVVRALPPAATASSEELRADVQAALDKLNRKR | not soluble |
| MAHHHHHHMGGRTAFEDVCANEAKAWSICLETNLGGKDVRKKCGEQQQTFDTCVSAWRTKVGNAVQVKGENEGDPPFQCASMACHIGECLRKYNYDFDRCEPHTQFFKYCVKSFYGQDYIS | not soluble |
| MARAIWKGAISFGLVHIPVALVSATTSNSVDFDWLDKRSMDPVGYKRINKVTGKEVTKENIVKGVLHEKDRYVVLSEEEIRSAHPKSTQTIDIFAFVDSQQIPLQNIDTPYFLTPDKRGEKVYALLRETLVDTQKVALANVVLHTREHLAAVMPLESALVMVILRWPADVRELDALELTEAVTDARLTKSERDMARRLVKDMSADWQPDQYHDTFQEKIMQLVQTKAGEGKIEDVETDPGEEERKSADVIDLTDLLRRSLAGKSSASKTRKPAAKDKVADKQSPKPKRPAVRKKTGKAS | not soluble |
| MWRVCARRAQNVAPWAGLEARWTALQEVPGTPRVTSRSGPAPVRRNSVTTGYGGVRALCGWTPSSGATPRNRLLLQLLGSPGRRYYSLPPHQKVPLPSLSPTMQAGTIARWEKKEGDKINEGDLIAEVETDKATVGFESLEECYMAKILVAEGTRDVPIGAIICITVGKPEDIEAFKNYTLDSSAAPTPQAAPAPTPAATASPPTPSAQAPGSSYPPHMQVLLPALSPTMTMGTVQRWEKKVGEKLSEGDLLAEIETDKATIGFEVQEEGYLAKILVPEGTRDVPLGTPLCIIVEKEADISAFADYRPTEVTDLKPQAPPPTPPPVAAVPPTPQPLAPTPSAPCPATPAGPKGRVFVSPLAKKLAVEKGIDLTQVKGTGPDGRITKKDIDSFVPSKVAPAPAAVVPPTGPGMAPVPTGVFTDIPISNIRRVIAQRLMQSKQTIPHYYLSINVNMGEVLLVRKELNKILEGRSKISVNDFIIKASALACLKVPEANSSWMDTVIRQNHVVDVSVAVSTPAGLITPIVFNAHIKGVETIANDVVSLATKAREGKLQPHEFQGGTFTISNLGMFGIKNFSAIINPPQACILAIGASEDKLVPADNEKGFDVASMMSVTLSCDHRVVDGAVGAQWLAEFRKYLEKPITMLL | soluble |
| MTVTTKLIDYSDEEGNNFEGVLYIPKNVKQSKVPAVLIFPAFRGITHFEKDKGQQIAELGFVAFVADVYGKGVRPTERADAFATMGPLVSNRVEKLKPRLFAAVNTLKTFSEVDTSKIAAIGYCFGGLCVLDLARYNAGLKGVVSYHGTLKPIPDIALDPIVGTTVYVHHGDADFHIAKDQVDGFHEEMRTRQADFVFVSHANAVHAFTEPEADSFNAPGIGYNEKAAKRSWNATLDLFKEIF | not soluble |
| MKKQKKARLIYNPTSGQEIMKKNVAEVLDILEGFGYETSAFQTTPTKNSARDEATRAAQAGFDLIVAAGGDGTINEVVNGIAPLKRRPKMAIIPTGTTNDFARALKIPRGNPIEATKLIGKNQIVKMDIGQAQEDNYFINIAAAGSLTELTYSVPSQLKTTFGYLAYLAKGVELLPRVRKVPVKITHDKGEFIGDASMIFVAITNSVGGFEQIAPDAKLDDGKFTLILVKTANLIEIMHLIRLVLAGGKHINDKRVEYIKTSYLTIEPLSDERMMINLDGEYGGDAPITLANLKNHIRFFANTDEISDDALVLDKDELAIEAIAQKFANEVDDLEGLGD | soluble |
| AHHHHHHGSEKALILAEGRYKTTDGKTAHGLVRYSKRFEIVGVIDSTLAGRDAGEILDGIYRGIPIYGSLEEALAEHPDVKYLIIGVATPGGYLPPLYREIIKKAIKKRINIVNGLHNFLSDDPEFSRLAKRYKVQLIDVRKMYRDLKIPFTGKIKEVRAIKIAVLGTDAAIGKRTTAIMLHEAFERFGKKSVFVAMGQTGWMQGAKYCIVMDSIINDFVVGAIEDVIWRAWKEENPDVIVTHGEGSLLHPAYPGGFELIAAGRPDYIILQHAPARKFFDDFPQYEIPPLEKYIQLIELLSGKKPIAITINSEGLTKEEALQKAREIEETYGILTRVPLYEGVDDIVKAILEEVERIKVTVPQEGAVNASQVL | not soluble |
| MEIRPTRIELIRTRRRIKLARKGLDLLKMKRSALIYEFLQISRTIRGMRENLRREVEDALNTIRTAEILEGQVALERIANMSSDSTINVDSRNVMGVVIPTLNLTYNLSILSDVYRTISVPVAINDAIDRFQRLFLNLIQILEKENALRNLLIEIDKTKRRSNAIENILIPRLEYQAKMIKMMLDERERDTFTTLKTIKKKIEAGKDEE | not soluble |
| MEEGIKMGTKLTSLFKEGEKYQINTKYKELPIKTNLKLLWIDENMKLLGFSIGACVFKGAFTPGTEVYIKINGKYAYGKVFSCSNELVIEFKEIRKEPEFIRRRTVRVEPDPANPVVVELKVDSYSIKTKAKDISETGVGVILEKDKPESAEVIDIIQKNPNSWFDLYVHLPKHGTAHAKGRVRNLSIEEEGIYIRIGFEAEYSKEDREKVRRYVFERQQEIIKSLKML | not soluble |
| GHHHHHHHHHHSSGHIEGRHMPAAPSPAPAGAVAGGPAAGVPAAASGAAEAAMPLPAALPGALAGSHAPRLPLAAGGRLARTRAVREFFDYCLTAQGELTPAALDALVRREIAAQLDGSPAQAEALGVWRRYRAYFDALAQLPGDGAVLGDKLDPAAMQLALDQRAALADRTLGEWAEPFFGDEQRRQRHDLERIRIANDTTLSPEQKAARLAALDAQLTPDERAQQAALHAQQDAVTKIADLQKAGATPDQMRAQIAQTLGPEAAARAAQMQQDDEAWQTRYQAYAAERDRIAAQGLAPQDRDARIAQLRQQTFTAPGEAIRAASLDRGAG | soluble |
| NGGIPHDNLVLIRMKPDENGRFGFNVKGGYDQKMPVIVSRVAPGTPADLCVPRLNEGDQVVLINGRDIAEHTHDQVVLFIKASCERHSGELMLLVRPNAVYDVVEE | soluble |
| MAHHHHHHMNRWRPFSKVRHFSGLTKLTNVREHQDEIISCIEKVKVVNPLVHCITNRVTTEKVANSLLAFGSSPAMIDNPKEVEQFAEIASCTYFNLGLHTSQVENIHVLDKMRQEKKKEEFILVIDPIAVGATQYRTNLIKDILVKCKPNVIKGNVAEIFYLDKGEFFGKGVDSNSSSSHTPNDIIASARNVALKYNCAVVVTSKADIIVSPCSKFVAQINCDLKILTKITGSGCSVGALCAAATSVIPQNPFIACTAATLIYKLAAFKAYQKETGPGTLSHQIIDNIYFYSNHPHFMNLQLVDVYAVS | soluble |
| YLSDVISSPQFEQAKSPTTVVLGQDIAGEAVIADIAKMPHVLVAGTTGSGKSVGVNVMILSMLYKASPEDLRFIMIDPKMLELSIYEGIPHLLAEVVTDMKDASNALRWCVGEMERRYKLMSALGVRNVKGFNEKLKMAAEAGHPIHDPFWQEGDSMDTEPPLLEKLPYIVVVVDEFADLMMVVGKKVEELIARLAQKARAAGIHLILATQRPSV | not soluble |
| MRFVPSYLIGFITLYLKGKVMLSIFDIYKIGVGPSSSHTNGPMIAGYRFVQQLLPQLNKVARIQVDLYGSLSLTGKGHHTDRATLLGLMGNQPATIKIGDANQTLREALQTGKLRLNGQHDIAFDYHQDLLFHQDNLPLHENGMTLSAFDTQGQQIDFETYYSVGGGFVATAEQLQNGT | not soluble |
